Measured values reported in patent EP4814014A1, “BINDING MOLECULE AND ANTIBODY-DRUG CONJUGATE AND USE THEREOF” (priority 2023, dated 2025).
Blank lines part the entries; values can stand above or below the binder they belong to.

Assays:
human EGFR on cells [1] = biological target: T1, human EGFR on cells (human, UniProt P00533 25-1210); experiment: FACS, VHH-His on CHOK1-huEGFR cells
T1 construct: whole, on cells; the cell line is named under assay; also called CHO-S-EGFR; CHOK1-huEGFR

human EGFR on cells [2] = biological target: T1, human EGFR on cells; experiment: FACS, VHH-His on MDA-MB-468 cells
[3] = biological target: T2, Cyno EGFR antigen (SPR of Example 4.4) (cynomolgus monkey, UniProt A0A2K5WK39 25-645); experiment: SPR method I, antigen on CM5 chip, VHH-His injected, 1:1 model
[4] = biological target: T3, Human EGFR antigen (SPR of Example 4.4) (human, UniProt P00533 25-645); experiment: as above
human cMet on cells [5] = biological target: T4, human cMet on cells (human, UniProt P08581 25-1390); experiment: FACS, VHH-His on EBC-1 cells
T4 construct: whole, on cells; Cell lines: CHO-S-cMet, CHOK1-hucMet, EBC-1, MKN45, NCI-H1975; the cell line is named under assay; also called CHO-S-cMet; CHOK1-hucMet
T4 sequence (P08581 25-1390): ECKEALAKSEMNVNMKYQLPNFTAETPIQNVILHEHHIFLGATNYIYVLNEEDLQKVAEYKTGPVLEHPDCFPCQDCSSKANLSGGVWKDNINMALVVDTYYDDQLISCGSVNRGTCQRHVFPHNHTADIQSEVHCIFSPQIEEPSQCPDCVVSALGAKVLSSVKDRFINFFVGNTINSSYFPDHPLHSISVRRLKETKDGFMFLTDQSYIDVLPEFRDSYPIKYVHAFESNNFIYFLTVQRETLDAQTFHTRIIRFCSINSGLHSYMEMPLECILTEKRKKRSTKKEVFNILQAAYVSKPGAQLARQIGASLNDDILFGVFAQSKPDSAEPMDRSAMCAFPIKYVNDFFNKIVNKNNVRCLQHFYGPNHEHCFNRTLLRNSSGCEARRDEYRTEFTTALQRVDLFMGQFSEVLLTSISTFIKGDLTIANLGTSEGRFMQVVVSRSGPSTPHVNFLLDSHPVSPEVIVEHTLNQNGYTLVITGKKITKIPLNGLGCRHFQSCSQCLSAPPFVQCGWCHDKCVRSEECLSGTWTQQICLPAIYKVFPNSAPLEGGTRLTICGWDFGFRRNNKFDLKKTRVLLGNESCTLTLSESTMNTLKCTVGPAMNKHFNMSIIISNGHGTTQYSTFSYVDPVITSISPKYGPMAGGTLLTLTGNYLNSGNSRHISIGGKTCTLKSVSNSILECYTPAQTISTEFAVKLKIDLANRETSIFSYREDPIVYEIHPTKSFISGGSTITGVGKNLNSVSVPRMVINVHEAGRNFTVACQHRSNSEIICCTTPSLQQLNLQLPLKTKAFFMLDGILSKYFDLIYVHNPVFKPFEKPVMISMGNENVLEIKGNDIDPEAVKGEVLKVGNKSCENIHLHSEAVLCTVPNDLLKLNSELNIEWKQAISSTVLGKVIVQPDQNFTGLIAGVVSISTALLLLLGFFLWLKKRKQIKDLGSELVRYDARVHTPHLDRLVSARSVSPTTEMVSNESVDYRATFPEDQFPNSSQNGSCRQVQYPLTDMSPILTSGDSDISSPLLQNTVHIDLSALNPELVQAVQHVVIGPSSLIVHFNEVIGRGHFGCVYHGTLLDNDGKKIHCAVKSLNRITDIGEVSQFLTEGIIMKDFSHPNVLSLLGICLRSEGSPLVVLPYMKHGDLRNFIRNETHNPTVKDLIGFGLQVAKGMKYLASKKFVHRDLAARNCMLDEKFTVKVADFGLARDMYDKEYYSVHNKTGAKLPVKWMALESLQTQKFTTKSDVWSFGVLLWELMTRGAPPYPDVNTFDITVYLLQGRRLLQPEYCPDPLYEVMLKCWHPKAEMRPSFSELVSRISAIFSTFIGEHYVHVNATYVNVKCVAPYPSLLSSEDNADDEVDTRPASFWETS

[6] = biological target: T5, Cynomolgus monkey cMet antigen (cynomolgus monkey, UniProt A0A2K5UM36 25-932); experiment: SPR method I, antigen on CM5 chip, VHH-His injected, 1:1 model
T5 construct: treated as one molecule; also called cynomolgus monkey cMet-His antigen; Cyno cMet
T5 sequence (A0A2K5UM36 entry or part of it limits assumed, form in doubt): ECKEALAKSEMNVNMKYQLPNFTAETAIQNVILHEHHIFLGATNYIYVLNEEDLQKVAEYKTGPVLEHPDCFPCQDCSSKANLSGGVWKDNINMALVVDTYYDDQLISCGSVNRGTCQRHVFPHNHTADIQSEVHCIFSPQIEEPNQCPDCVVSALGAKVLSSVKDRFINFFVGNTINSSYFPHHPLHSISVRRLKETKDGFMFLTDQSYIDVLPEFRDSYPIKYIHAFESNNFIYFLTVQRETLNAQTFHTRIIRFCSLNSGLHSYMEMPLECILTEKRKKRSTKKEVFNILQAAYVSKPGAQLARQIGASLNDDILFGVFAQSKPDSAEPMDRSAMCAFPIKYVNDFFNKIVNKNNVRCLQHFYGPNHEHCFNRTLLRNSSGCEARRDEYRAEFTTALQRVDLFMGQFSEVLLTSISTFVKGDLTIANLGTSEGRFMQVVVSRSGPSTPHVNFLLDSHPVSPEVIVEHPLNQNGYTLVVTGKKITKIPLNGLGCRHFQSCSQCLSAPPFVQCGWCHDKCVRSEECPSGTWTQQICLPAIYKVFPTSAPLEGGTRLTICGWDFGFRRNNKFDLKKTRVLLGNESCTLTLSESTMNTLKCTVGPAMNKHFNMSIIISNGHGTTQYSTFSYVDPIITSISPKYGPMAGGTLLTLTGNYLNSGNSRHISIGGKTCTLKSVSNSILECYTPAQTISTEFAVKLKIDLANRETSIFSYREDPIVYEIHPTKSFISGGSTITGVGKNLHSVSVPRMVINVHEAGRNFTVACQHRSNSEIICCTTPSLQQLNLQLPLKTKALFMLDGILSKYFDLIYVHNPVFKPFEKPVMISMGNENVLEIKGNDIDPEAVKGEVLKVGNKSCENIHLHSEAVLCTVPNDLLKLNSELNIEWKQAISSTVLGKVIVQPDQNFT

Human cMet antigen [7] = biological target: T6, Human cMet antigen (human, UniProt P08581 25-932); experiment: as above
T6 construct: treated as one molecule; also called Human cMet-His antigen
T6 sequence (P08581 25-932): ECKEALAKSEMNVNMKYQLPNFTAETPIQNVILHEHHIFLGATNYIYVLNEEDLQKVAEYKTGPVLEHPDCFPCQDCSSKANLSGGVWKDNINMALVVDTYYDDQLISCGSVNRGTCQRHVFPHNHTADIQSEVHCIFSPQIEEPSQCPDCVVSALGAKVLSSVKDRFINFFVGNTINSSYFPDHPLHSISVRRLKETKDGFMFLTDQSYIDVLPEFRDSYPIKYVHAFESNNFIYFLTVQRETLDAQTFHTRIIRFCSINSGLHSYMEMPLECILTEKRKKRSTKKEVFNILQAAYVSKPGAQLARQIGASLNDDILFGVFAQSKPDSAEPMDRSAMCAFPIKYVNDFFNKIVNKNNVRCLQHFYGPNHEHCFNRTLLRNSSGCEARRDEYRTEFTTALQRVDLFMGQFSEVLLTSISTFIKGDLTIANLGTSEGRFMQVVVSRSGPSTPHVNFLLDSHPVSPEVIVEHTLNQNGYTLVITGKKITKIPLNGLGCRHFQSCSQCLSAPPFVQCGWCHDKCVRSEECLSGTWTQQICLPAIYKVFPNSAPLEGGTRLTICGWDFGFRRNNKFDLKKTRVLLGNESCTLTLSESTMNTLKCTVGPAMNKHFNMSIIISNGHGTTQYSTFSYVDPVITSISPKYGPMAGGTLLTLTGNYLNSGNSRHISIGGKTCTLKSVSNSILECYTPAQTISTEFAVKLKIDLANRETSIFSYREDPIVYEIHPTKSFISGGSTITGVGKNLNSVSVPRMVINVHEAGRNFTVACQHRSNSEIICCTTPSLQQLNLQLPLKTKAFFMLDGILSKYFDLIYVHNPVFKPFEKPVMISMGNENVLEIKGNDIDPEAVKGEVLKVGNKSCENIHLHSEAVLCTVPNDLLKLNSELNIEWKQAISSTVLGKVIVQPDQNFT

[8] = biological target: T5, Cynomolgus monkey cMet antigen; experiment: SPR method II, antibody captured on Protein A chip, antigen injected, 1:1 model
Human cMet antigen [9] = biological target: T6, Human cMet antigen; experiment: as above
human cMet on cells [10] = biological target: T4, human cMet on cells; experiment: FACS, VHH-His on MKN45 cells
human cMet on cells [11] = biological target: T4, human cMet on cells; experiment: FACS, VHH-His on MKN45 cells; remark: listed apart in the source
human cMet on cells [12] = biological target: T4, human cMet on cells; experiment: FACS, VHH-His on CHOK1-hucMet cells
[13] = biological target: T2, Cyno EGFR antigen (SPR of Example 4.4); experiment: SPR method II, antibody captured on Protein A chip, antigen injected, 1:1 model
[14] = biological target: T3, Human EGFR antigen (SPR of Example 4.4); experiment: as above

Maximum MFI value (human EGFR on cells [1]): 2760 MFI | Maximum MFI value (human EGFR on cells [2]): 5830 MFI | Maximum MFI value (human EGFR on cells [2]; record 2): 5160 MFI | Kd [3]: 17.2 nM | koff [3]: 0.01 s⁻¹ | kon [3]: 581000 M⁻¹ s⁻¹ | Kd [4]: 37.4 nM | koff [4]: 0.0258 s⁻¹ | kon [4]: 691000 M⁻¹ s⁻¹
B1: V-n10A1 anti-EGFR VHH-His (VHH, not shown: small tags and cut ends)
VHH: QVQLVESGGGLVQAGGSLRLSCAASGRTGSLHAMGWFRQAPGKERERVATLNLSDGSAVTADSVKGRFTISTDNTKNSVYLQMNSLKPEDTAVYYCTASRSPSGIRYYKPDYWGQGTQVTVSS
notes: Monovalent parent VHH

EC50 (human cMet on cells [5]): 1.56 nM | Maximum MFI value (human cMet on cells [5]): 291000 MFI | Kd [6]: 70.3 nM | koff [6]: 0.0072 s⁻¹ | kon [6]: 102000 M⁻¹ s⁻¹ | Kd (Human cMet antigen [7]): 16 nM | koff (Human cMet antigen [7]): 0.0029 s⁻¹ | kon (Human cMet antigen [7]): 181000 M⁻¹ s⁻¹
B2: V-n9A2 anti-cMet VHH-His (VHH, not shown: small tags and cut ends)
VHH: QSQLAESGGGLVQSGGSLGLSCVASGFTISRSIMSWYRQPPGKERDWVASIGSAGNTNYVDSVKGRFTISRDVAKNTVYLQMNSLKPEDTAVYYCKTTLAVSFSEYWGQGTQVTVSS
notes: Monovalent parent VHH

Kd [8]: 0.584 nM | koff [8]: 7.14e-05 s⁻¹ | kon [8]: 122000 M⁻¹ s⁻¹ | Kd (Human cMet antigen [9]): 0.681 nM | koff (Human cMet antigen [9]): 7.38e-05 s⁻¹ | kon (Human cMet antigen [9]): 108000 M⁻¹ s⁻¹
B3: Reference benchmark antibody ABT-700 (antibody, V domains shown)
VH: QVQLVQSGAEVKKPGASVKVSCKASGYIFTAYTMHWVRQAPGQGLEWMGWIKPNNGLANYAQKFQGRVTMTRDTSISTAYMELSRLRSDDTAVYYCARSEITTEFDYWGQGTLVTVSS
VL: DIVMTQSPDSLAVSLGERATINCKSSESVDSYANSFLHWYQQKPGQPPKLLIYRASTRESGVPDRFSGSGSGTDFTLTISSLQAEDVAVYYCQQSKEDPLTFGGGTKVEIKR

Maximum MFI value (human cMet on cells [10]): 36700 MFI
B4: 7A12-M2 (VHH, not shown: small tags and cut ends)
VHH: EVQLVESGGGLIQPGGSLRLSCKASGNIFSSNHMGWFRQAPGKQLEWVAYITTREITNYADSVKGRFTISRDNSKNTVYLQMNNLRSEDTAVYYCIADQSREIRRSWGQGTLVTVSS

EC50 (human cMet on cells [11]): 88.1 nM | Maximum MFI value (human cMet on cells [11]): 56600 MFI
B5: 7A12-M1 (VHH, not shown: small tags and cut ends)
VHH: EVQLVESGGGLVQPGGSLRLSCAASGNIFSSNHMGWVRQAPGKGLEWVAYITTREITNYADSVKGRFTISRDNSKNTVYLQMNSLRAEDTAVYYCIADQSREIRRSWGQGTLVTVSS
notes: Humanized anti-cMet VHH-His

Maximum MFI value (human cMet on cells [10]): 57400 MFI
B6: 7A12-M3 (VHH, not shown: small tags and cut ends)
VHH: EVQLVESGGGLIQPGGSLRLSCTASGNIFSSNHMGWFRQAPGKQLEWIAYITTREITNYADSVKGRFTISRDNSKNTVYLQMNNLRSEDTAVYYCIADQSREIRRSWGQGTQVTVSS

EC50 (human cMet on cells [12]): 2.1 nM
B7: dpzn7A12m4.ml_1.m1 (VHH, not shown: small tags and cut ends)
VHH: EVQLVESGGGLVQPGGSLRLSCTASGNIFSSYHMGWFRQAPGKQREFIAYITTREITNYADSVKGRFTISRDNSKNTLYLQMNSLRAEDTAVYYCIADQSREIRRSWGQGTLVTVSS
notes: Humanized + PTM removal + secondary immunogenicity removal, anti-cMet VHH-His; also called hu7A12

EC50 (human cMet on cells [11]): 4.11 nM | Maximum MFI value (human cMet on cells [11]): 44700 MFI
B8: 7A12-M4 (VHH, not shown: small tags and cut ends)
VHH: EVQLVESGGGLIQAGGSLRLSCTASGNIFSSNHMGWFRQAPGKQREFIAYITTREITNYADSVKGRFTISRDNSKNTVYLQMNNLRSEDTAVYYCIADQSREIRRSWGQGTLVTVSS
notes: Humanized anti-cMet VHH-His

Kd [13]: 2.05 nM | koff [13]: 8.04e-05 s⁻¹ | kon [13]: 39200 M⁻¹ s⁻¹ | Kd [14]: 11.9 nM | koff [14]: 0.000392 s⁻¹ | kon [14]: 33000 M⁻¹ s⁻¹
B9: V-F42 (hu9B8_Fc)2 (Fc fusion, not shown: a dimerising Fc or GST)
chain: EVQLLESGGGLVQPGGSLRLSCAASGLTFSYYAMAWFRQAPGKEREFVAAINWNQGNTYNTDSVKGRFTISRDNSKNTVYLQMNSLTPEDTAVYYCAVRYNQASYLVARSSDYNYWGQGTLVTVSS
notes: dimeric VHH with an Fc tag at the C-terminus

EC50 (human EGFR on cells [2]): 15 nM | Maximum MFI value (human EGFR on cells [2]): 111000 MFI | Kd [3]: 7.36 nM | koff [3]: 0.00384 s⁻¹ | kon [3]: 522000 M⁻¹ s⁻¹ | Kd [4]: 23.2 nM | koff [4]: 0.00536 s⁻¹ | kon [4]: 232000 M⁻¹ s⁻¹
B10: V-n5B10 anti-EGFR VHH-His (VHH, not shown: small tags and cut ends)
VHH: AVQLVDSGGGLVQPGGSLRLDCSASGTIIGTYTMAWYRQAPGKQREMVAIITPGGGSHHADSVKGRFTISRDNGKSTVYLQMSSLKFEDTAVYYCNAKARWGTTEYWGQGTQVTVSS
notes: Monovalent parent VHH
